# Numbering of substitutions follows the chain as printed. In names and notes the source's numbering stands. Like-named read-outs stand apart in the source and are kept apart here.
# T1: human retinal guanylyl cyclase RetGC1 (human, UniProt Q02846 52-1103)
# T1 sequence (looked up): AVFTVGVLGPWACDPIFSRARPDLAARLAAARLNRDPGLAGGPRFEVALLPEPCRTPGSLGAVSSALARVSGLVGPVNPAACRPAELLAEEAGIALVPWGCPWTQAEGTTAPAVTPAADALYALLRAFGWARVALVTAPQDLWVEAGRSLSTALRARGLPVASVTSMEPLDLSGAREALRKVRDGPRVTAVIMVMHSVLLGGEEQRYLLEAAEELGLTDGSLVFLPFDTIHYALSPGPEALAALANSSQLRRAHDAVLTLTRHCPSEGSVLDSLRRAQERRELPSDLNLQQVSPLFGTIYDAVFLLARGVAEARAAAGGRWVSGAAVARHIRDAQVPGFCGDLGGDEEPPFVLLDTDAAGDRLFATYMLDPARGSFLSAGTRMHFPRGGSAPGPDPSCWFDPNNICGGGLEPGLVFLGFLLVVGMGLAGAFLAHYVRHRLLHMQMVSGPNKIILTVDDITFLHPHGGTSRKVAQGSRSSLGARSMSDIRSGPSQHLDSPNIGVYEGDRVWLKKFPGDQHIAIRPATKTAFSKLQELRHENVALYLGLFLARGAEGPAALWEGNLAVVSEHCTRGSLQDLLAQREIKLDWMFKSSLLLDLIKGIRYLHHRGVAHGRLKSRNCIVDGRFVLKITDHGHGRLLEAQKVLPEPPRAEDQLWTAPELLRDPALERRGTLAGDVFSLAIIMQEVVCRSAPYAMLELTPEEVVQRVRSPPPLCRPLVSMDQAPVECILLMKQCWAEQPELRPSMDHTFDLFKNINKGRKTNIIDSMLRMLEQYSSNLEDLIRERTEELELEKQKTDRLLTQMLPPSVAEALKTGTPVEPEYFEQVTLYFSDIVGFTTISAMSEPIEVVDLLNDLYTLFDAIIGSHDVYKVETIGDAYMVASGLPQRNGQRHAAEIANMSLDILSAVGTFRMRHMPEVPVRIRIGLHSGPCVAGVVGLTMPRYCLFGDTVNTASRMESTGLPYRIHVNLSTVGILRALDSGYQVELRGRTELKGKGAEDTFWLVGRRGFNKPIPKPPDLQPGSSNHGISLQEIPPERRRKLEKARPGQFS
# B1: Cys-less mutant of GCAP1 (GCAP1^CL) (natural protein)
# chain: MGNIMSGKSVEELSSTETHQWYKKFMTETPSGQLTLYEFRQFFGLKNLSPWASQYVEQMFETFDFNKDGYIDFMEYVAALSLVLKGKVEQKLRWYFKLYDVDGNGTIDRDELLTIIRAIRAINPTSDSTMTAEEFTDTVFSKIDVNGDGELSLEEFMEGVQKDQMLLDTLTRSLDLTRIVRRLQNGEQDEEGASGRETEAAEADG
# modifications: N-terminal myristoylation
# B2: GCAP1^CL(E133C), nitroxide spin-labelled (natural protein, bovine, UniProt P46065 1-205, looked up)
# chain: B1 chain with E133C
# modifications: N-terminal myristoylation; MTSSL nitroxide spin-label on Cys133
# notes: GCAP1, bovine, D6S background, Cys-less (all four native Cys C18, C29, C106, C125 to Thr), with a single Cys at 133; source: E. coli BL21(DE3), co-expressed with yeast N-myristoyl CoA transferase, purified, labelled with MTSSL
# B3: GCAP1^CL(T29C), spin-labelled (natural protein, bovine, UniProt P46065 1-205, looked up)
# chain: B1 chain with T29C
# modifications: N-terminal myristoylation; MTSSL spin-label on Cys29 (N-O group reduced for the HSQC spectrum)
# notes: GCAP1, bovine, D6S background, Cys-less parent (C18, C29, C106, C125 to Thr) in which T29C restores the natural Cys29; also called spin-labeled GCAP1^CL(T29C); source: E. coli BL21(DE3), co-expressed with yeast N-myristoyl CoA transferase, purified, labelled with MTSSL
# B4: GCAP1^CL(E154C), nitroxide spin-labelled (natural protein, bovine, UniProt P46065 1-205, looked up)
# chain: B1 chain with E154C
# modifications: N-terminal myristoylation; MTSSL nitroxide spin-label on Cys154
# notes: GCAP1, bovine, D6S background, Cys-less (all four native Cys C18, C29, C106, C125 to Thr), with a single Cys at 154; source: E. coli BL21(DE3), co-expressed with yeast N-myristoyl CoA transferase, purified, labelled with MTSSL
# B5: GCAP1^CL(E57C), nitroxide spin-labelled (natural protein, bovine, UniProt P46065 1-205, looked up)
# chain: B1 chain with E57C
# modifications: N-terminal myristoylation; MTSSL nitroxide spin-label on Cys57
# notes: GCAP1, bovine, D6S background, Cys-less (all four native Cys C18, C29, C106, C125 to Thr), with a single Cys at 57; source: E. coli BL21(DE3), co-expressed with yeast N-myristoyl CoA transferase, purified, labelled with MTSSL
# B6: wild type GCAP1 (recombinant bovine myristoylated guanylyl cyclase activating protein 1, D6S) (natural protein, UniProt P46065 1-205, looked up)
# chain: B1 chain with T18C, T29C, T106C, T125C
# modifications: N-terminal myristoylation
# notes: 15N-labelled for NMR; also called GCAP1 D6S mutant; source: E. coli BL21(DE3), co-expressed with yeast N-myristoyl CoA transferase, purified
# Key:
# [1] = target: T1, human retinal guanylyl cyclase RetGC1
# [2] = target: the molecule itself; assay: EPR-DEER; spin-labelled (MTSSL) single-Cys GCAP1 at ~300 uM, 10 mM Tris-d11 pH 7.4, 2 mM MgCl2, D2O, 25% glycerol-d8, frozen, 50 or 80 K; Ca2+-free/Mg2+-bound state, similar data in the Ca2+-bound state; intermolecular spin-label distances
# [3] = target: the molecule itself; assay: NMR pulsed-field gradient diffusion; translational diffusion coefficient of spin-labelled GCAP1^CL(T29C); molar mass from D
# [4] = target: T1, human retinal guanylyl cyclase RetGC1; assay: cell-based or functional assay
# [5] = target: the molecule itself; assay: SEC; analytical SEC, Superdex 200 HR 10/30, 100 uL of 200 uM protein, 10 mM Tris pH 7.4, 100 mM NaCl, 1 mM DTT, 4 C, with saturating Mg2+ (2 mM) or Ca2+ (2 mM); molar mass from elution time against protein standards
binder,measurement,setting,value
B1,"EC50 of activation of RetGC1 (HEK293 membranes) in the absence of Ca2+ (EGTA), guanylyl cyclase assay",[1],14 µM
B2,binding result,[2],binds
B3,stoichiometry N,[3],4
B4,binding result,[2],binds
B5,binding result,[2],binds
B6,"EC50 of activation of RetGC1 (HEK293 membranes) in the absence of Ca2+ (EGTA), guanylyl cyclase assay",[4],< 2 µM
same,stoichiometry N,[5],2
